Assay [1] deals with T1, recombinant human H1b (Homo sapiens, UniProt P10412).
T1 construct: Human histone H1b and H1° were inserted into HA-Pet30c; HA (N); made in house; host or cells: E. coli BL21 (DE3)
The assay is described as follows: In vitro deacetylation of p300-acetylated recombinant H1b by SirT proteins. The assay is classed as biochemical. The settings on record: equal NAD+-exchange units measured using acetylated BSA as substrate. On the procedure: Detection of H1 acetylation was performed by using 4 μg of histone H1 (Upstate Biotechnology, Inc., Lake Placid, N.Y.) as an acetylated substrate for SirT1 in the NER. Deacetylation was determined by first performing a deacetylation assay using 20 and 40 μg of H1 and 6 nmol of SirT1. H1 was then isolated in the supernatant of chilled 5% perchloric acid, TCA precipitated (Albig, et al. (1998) FEBS Lett. 435:245-250), and resuspended in buffer C containing 100 mM KCl. Deacetylated H1 was then used in a subsequent NER. In vitro acetylation of H1 or recombinant H1b expressed in E. coli was carried out by incubating 10 μg H1 with 2 nmol baculovirus-generated p300 in the presence of 0.875 μCi [H^3]-Ac-CoA (Amersham, Piscataway, N.J.) in HAT buffer (75 mM Tris-HCl [pH 8.8], 135 mM NaCl). Deacetylation was carried out with the specified enzyme as above using 1 μg of the labeled Hi. […] Counts were then determined by liquid scintillation (PERKINELMER, Wellesley, Mass.) . […] In vivo H1 acetylation was analyzed by treating 293 cells for 18 hours in media containing 5 mM nicotinamide. H1 was purified as described (Albig, et al. (1998) supra) and analyzed in the NER. […]
SirT1 activity on histone H1 was directly tested in vitro. […] The same result was observed using recombinant human H1b; however, specificity was also scored in this assay using different SirT proteins.

For assay [2], the system named is pTK-Luc reporter under the control of Gal4. The assay is described as follows: Transient transfection Gal4 pTK-Luc reporter assay. The settings on record: 293F cells, luciferase normalized to β-galactosidase. The assay is classed as cell-based. On the procedure:
Transfections. All transfections were carried out in 293F cells using the indicated plasmids and POLYFECT (QIAGEN, Valencia, Calif.) following the protocol provided by the manufacturer. Nuclear and cytoplasmic fractions were isolated by a modified protocol (Dignam, et al. (1983) Methods Enzymol. 101:582-598). Fractions were analyzed by immunoprecipitation with the indicated antibodies followed by immunoblotting, or by luciferase activity (TD20e luminometer; Turner BioSystems, Sunnyvale, Calif.) . In the case of transient transfections, a β-gal reporter was used as a transfection control and the levels of luciferase activity were normalized to those of β-galactosidase, shown as a percentage. dsRNAi was ordered as a custom SMARTPOOL against SirT1 (Dharmacon, Lafayette, Colo.) and was transfected into U2OS cells using RNAFECT (QIAGEN, Valencia, Calif.). After incubation for 48 hours, cells were harvested and lysed with RIPA buffer (50 mM Tris-HCl, pH 7.4, 1% NP40, 0.25% Na-deoxycholate, 150 mM NaCl, 1 mM EDTA, 1 mM PMSF, 1 mM leupeptin, 1 mM aprotinin, and 1 mM pepstatin). Western blots were performed using the indicated antibodies. Total H4 was visualized by both western and COOMASSIE blue staining.
Plasmids. […]
(In general: In a reporter assay the amount or activity of a reporter protein is the signal.)

T1 sequence (P10412 2-219): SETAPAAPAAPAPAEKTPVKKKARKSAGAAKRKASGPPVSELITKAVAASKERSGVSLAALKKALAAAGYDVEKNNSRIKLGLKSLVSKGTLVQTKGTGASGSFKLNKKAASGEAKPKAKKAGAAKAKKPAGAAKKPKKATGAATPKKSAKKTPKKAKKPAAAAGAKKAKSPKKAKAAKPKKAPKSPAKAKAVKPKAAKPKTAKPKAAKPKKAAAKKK

B1: SirT2: Recombinant SirT2 expressed in E. coli (protein)
chain: MAEPDPSHPLETQAGKVQEAQDSDSDSEGGAAGGEADMDFLRNLFSQTLSLGSQKERLLDELTLEGVARYMQSERCRRVICLVGAGISTSAGIPDFRSPSTGLYDNLEKYHLPYPEAIFEISYFKKHPEPFFALAKELYPGQFKPTICHYFMRLLKDKGLLLRCYTQNIDTLERIAGLEQEDLVEAHGTFYTSHCVSASCRHEYPLSWMKEKIFSEVTPKCEDCQSLVKPDIVFFGESLPARFFSCMQSDFLKVDLLLVMGTSLQVQPFASLISKAPLSTPRLLINKEKAGQSDPFLGMIMGLGGGMDFDSKKAYRDVAWLGECDQGCLALAELLGWKKELEDLVRREHASIDAQSGAGVPNPSTSASPKKSPPPAKDEARTTEREKPQ
Regarding B1, the H1b deacetylation result in assay [1] was “failed to significantly deacetylate H1b”.

B2: G4-SirT1: SirT1 fused to the Gal4 DNA binding domain (protein)
chain: MKLLSSIEQACDICRLKKLKCSKEKPKCAKCLKNNWECRYSPKTKRSPLTRAHLTEVESRLERLEQLFLLIFPREDLDMILKMDSLQDIKALLTGLFVQDNVNKDAVTDRLASVETDMPLTLRQHRISATSSSEESSNKGQRQLTVSMADEAALALQPGGSPSAAGADREAASSPAGEPLRKRPRRDGPGLERSPGEPGGAAPEREVPAAARGCPGAAAAALWREAEAEAAAAGGEQEAQATAAAGEGDNGPGLQGPSREPPLADNLYDEDDDDEGEEEEEAAAAAIGYRDNLLFGDEIITNGFHSCESDEEDRASHASSSDWTPRPRIGPYTFVQQHLMIGTDPRTILKDLLPETIPPPELDDMTLWQIVINILSEPPKRKKRKDINTIEDAVKLLQECKKIIVLTGAGVSVSCGIPDFRSRDGIYARLAVDFPDLPDPQAMFDIEYFRKDPRPFFKFAKEIYPGQFQPSLCHKFIALSDKEGKLLRNYTQNIDTLEQVAGIQRIIQCHGSFATASCLICKYKVDCEAVRGDIFNQVVPRCPRCPADEPLAIMKPEIVFFGENLPEQFHRAMKYDKDEVDLLIVIGSSLKVRPVALIPSSIPHEVPQILINREPLPHLHFDVELLGDCDVIINELCHRLGGEYAKLCCNPVKLSEITEKPPRTQKELAYLSELPPTPLHVSEDSSSPERTSPPDSSVIVTLLDQAAKSNDDLDVSESKGCMEEKPQEVQTSRNVESIAEQMENPDLKNVGSSTGEKNERTSVAGTVRKCWPNRVAKEQISRRLDGNQYLFLPPNRYIFHGAEVYSDSEDDVLSSSSCGSNSDSGTCQSPSLEEPMEDESEIEEFYNGLEDEPDVPERAGGAGFGTDGDDQEAINEAISVKQEVTDMNYPSNKS
On to B2, for which the “repression of reporter expression” value in assay [2] is “approximately 100%”.

B3: SirT3: Recombinant SirT3 expressed from baculovirus in SF9 cells (protein)
chain: MAFWGWRAAAALRLWGRVVERVEAGGGVGPFQACGCRLVLGGRDDVSAGLRGSHGARGEPLDPARPLQRPPRPEVPRAFRRQPRAAAPSFFFSSIKGGRRSISFSVGASSVVGSGGSSDKGKLSLQDVAELIRARACQRVVVMVGAGISTPSGIPDFRSPGSGLYSNLQQYDLPYPEAIFELPFFFHNPKPFFTLAKELYPGNYKPNVTHYFLRLLHDKGLLLRLYTQNIDGLERVSGIPASKLVEAHGTFASATCTVCQRPFPGEDIRADVMADRVPRCPVCTGVVKPDIVFFGEPLPQRFLLHVVDFPMADLLLILGTSLEVEPFASLTEAVRSSVPRLLINRDLVGPLAWHPRSRDVAQLGDVVHGVESLVELLGWTEEMRDLVQRETGKLDGPDK
In the case of B3, the H1b deacetylation result in assay [1] was “failed to significantly deacetylate H1b”.

Source of the values: patent US20070065890A1, “Method for promoting formation of facultative heterochromatin” (priority 2005, published 2007).
